Measured values taken from the DeepSol protein solubility set.

Assay: soluble on expression in E. coli; label from the status in PepcDB or PDB records

Sequence	soluble on expression in E. coli
MSLIDTMQYGKNDSLRDEIKAYWSGRAATFDLSPGHEIFSEDERAAWHALILKHLGRGEGRKALDLASGTGVISHLMDDLGFQVTGMDWSETMLGLAREKAKSRGRNIRFFVGDAENTMEPDESADVIITRHLVWTLVDPQASFAEWFRVLKPGGKLLIVDGDFVNTGWRERLVKKLAVSLESIGLVKADQPHKPADPENTFNSILSRVYFSKGARAGDVATMLGATGFEPVSVDQELRAIHRAQAKNFSLLKGILRGLQHRYAVCAVKPDTSVKGEGHHHHHH	not soluble
SLWQPQTGDIIFQISRSSQSKAIQLATHSDYSHTGMLVMRNKKPYVFEAVGPVKYTPLKQWIAHGEKGKYVVRRVEGGLSVEQQQKLAQTAKRYLGKPYDFSFSWSDDRQYCSEVVWKVYQNALGMRVGEQQKLKEFDLSNPLVQAKLKERYGKNIPLEETVVSPQAVFDAPQLTTVAKEWPLFSW	soluble
LYKKAGLMVDKKLVVVFGGTGAQGGSVARTLLEDGTFKVRVVTRNPRKKAAKELRLQGAEVVQGDQDDQVIMELALNGAYATFIVTNYWESCSQEQEVKQGKLLADLARRLGLHYVVYSGLENIKKLTAGRLAAAHFDGKGEVEEYFRDIGVPMTSVRLPCYFENLLSHFLPQKAPDGKSYLLSLPTGDVPMDGMSVSDLGPVVLSLLKMPEKYVGQNIGLSTCRHTAEEYAALLTKHTRKVVHDAKMTPEDYEKLGFPGARDLANMFRFYALRPDRDIELTLRLNPKALTLDQWLEQHKGDFNLL	soluble
MSDDESIFVPDENSAQVSAETTVKCYRTDSASSQKVINNLEKFVLNQSLDKSYKKIASDGIASSKRTLESLLARNGGHQNLLNEEVNKLNNKNYTLDADGRVCLVKNSSNDTSRHQELILLQKDTHELRCLREYLMLALEAIMHNHRQMMVKHVQNVRERPRQVSQAAIDNAIVSSAFGLFIEAFYSFLFQEKANTRIIDEFAQMTLFVDQSIAREEIRSENRRKLKKTIEIETFLMRMMLEMEDIREANVKDLVSLWRSHQRSAKTQPTNNNAAGDSTN	not soluble
MGGHHHHHHGENLYFQGISSETGEMGILWEFDPIINKWIRLSMKLKVERKPFAEGALREAYHTVSLGVGTDENYPLGTTTKLFPPIEMISPISKNNEAMTQLKNGTKFVLKLYKKEAEQQASRELYFEDVKMQMVCRDWGNKFNQKKPPKKIEFLMSWVVELIDRSPSSNGQPILCSIEPLLVGEFKKNNSNYGAVLTNRSTPQAFSHFTYELSNKQMIVVDIQGVDDLYTDPQIHTPDGKGFGLGNLGKAGINKFITTHKCNAVCALLDLDVKLGGVLSGNNKKQLQQGTMVMPDILPELMPSDNT	soluble
MPGLEKTRIVDPILTNVAIGYKNAEYVGESLFPVVPVDKEQGKIPKWGAEAFRIYNTRRQIRSKTNRIEMDATTVPYSLEEEALEAPIDDRELEEAAEVLKLEMSRTKMLTDNIRLKMEKDQADVAQNVANYSPGHVEALSGTDKFSDPASKPIDVIGDARATVRSKIGIYPNVLLMGASVYEVLKNHSAIIDKIKYSQKGIATPTCSQKSST	not soluble
MLMEPQFLRLVSHGANVLDPLSRIEPAAVGMMAGALQKGLAETFTPEAMQDPPRVGLAGFFKQLSDPEVQKALGVLFLFLKALGKAFGHMNEERKTLEAMMAKMMPKK	soluble
MAAFEAHDYALAERQAQALLAHPATASGARFMLGYVYAFMDRFDEARASFQALQQQAQKSGDHTAEHRALHQVGMVERMAGNWDAARRCFLEERELLASLPEDPLAASANAYEVATVALHFGDLAGARQEYEKSLVYAQQADDQVAIACAFRGLGDLAQQEKNLLEAQQHWLRARDIFAELEDSEAVNELMTRLNGLEHHHHHH	not soluble
MGSDKIHHHHHHMQGVEPRERPYPQPNIQISYKKMEECPICLADDQEGEQFGCLNVCGHKFHLNCIREWHKYSINLKCPICRVESTHLEVGEGQHALSINLKMGFMIKNAIDYVGAETTNERNEDDTGEQDQEIEFLSERLRGTLVMDTIKIIQCSICGDTDVSRLSLYCQDCEAIYHETCLRGLACEVGDRNTWQECTDCRSNALLELRMGAISSQLASYDSRNSMIFAGELRDKHSVKTQQMYEQIRNAKHKIQMHVRRALDRYPLPLLRFKDAYKHVNKQVSRKLYRLSDNKYLPDQYDYDSLARTGVHTELLIYCHDE	not soluble
MSDQLEASIKNILEQKTLKWIFVGGKGGVGKTTCSCSLAAQLSKVRERVLLISTDPAHNISDAFSQKFTKTPTLVEGFKNLFAMEIDSNPNGEGVEMGNIEEMLQNAAQNEGGSGGFSMGKDFLQSFAGGLPGIDEAMSFGEMIKLIDSLDFDVVVFDTAPTGHTLRLLQFPTLLEKVFTKILSLQGMFGPMMNQFGGMFGMGGGSMNEMIEKMTTTLESVKKMNAQFKDPNCTTFVCVCIAEFLSLYETERLIQELSKQGIDTHNIIVNQLLFPDTDANGTVSCRKCASRQAIQSKYLTDIDELYEDFHVVKLPLLEAEVRGGPAILQFSERMVDPEANKN	not soluble
MEVDKKDEREAESSEQVVNPWEVSAKDGGKIDYDKLIDKFGCQRLDESLIDRVQRLTSRQPHVFLRRSVFFAHRDFNEILDAYERGDKFYLYTGRGPSSEALHLGHLIPFMFTKYLQEAFKVPLVIQLTDDEKSIWKNLSVEESQRLARENAKDIIACGFDVTKTFIFSDFDYVGGAFYKNMVKVGKCVTLNKAMGIFGFSGEDPIAKLSFPPVQAVPSFPSSFPHLFPGKDNLRCLIPCAIDQDPYFRMTRDVAPRLGYSKPALIESTFFPALQGENGKMSASDPNSAIYVTDSAKDIKNKINRYAFSGGQDSIEKHRELGANLEVDIPVKYLSFFLEDDSELEHIKKEYGEGRMLTGEVKKRLTEVLTEIVERHRRARAAVTDEMVDAFMAVRPLPSMFE	soluble
MGSDKIHHHHHHMERITILHTNDLHSHFENWPRIRRYLKTTRQQVMADGATVYTFDLGDHVDRVHPVSEATNGQQNIQLMNQIGYDGVTIGNNEGLGFVRAQLDHLYDHANFPVILGNLRIPDTHELPDWAIDHRLLTTAAGTRLLVLGLTAPYHLTYPLAGWQILDVQPTLAALLHRFAGQFDVCVLLSHLGLDVDRLLAKRFPQVTVIIGSHTHHLLPHGEHDHQSLLAAAGKFGRYIGKIELSITPDHQVKSAVASVTETATLPVADGDTAEITSLQDLGESILSEQRVANLPTAMEADPTGQPRLVREGLHAIAEYAGTQAAILNAGLFLQDLPSGVVNQNQLHQLLPHNMHVMTVTLSGYDLWRLVQEFELARLFLRRFPQKGMGFRGKIFGELNYLGLAYDAVTHQVTWRGEPLSPTRQYRIAMVDHYLFIPFFPTISIVGKNQILYDDLLREVFAQYLARHYPLT	not soluble
KAKTEDFVKAFQVFDKESTGKVSVGDLRYMLTGLGEKLTDAEVDELLKGVEVDSNGEIDYKKFIEDVLRQ	soluble
MTDKDLLHQKYYHGLLPREDIQEMLNKPGQFLLRTSEPVKGEKRQFVLSVVGEKNTSANHFVVREADHKVYVDKIGFPTIIELVNHYVSTKESFSTKDGTVKVVLKHAVERQKWELYHEDVELTKKLGEGAFGEVWKGKLLKILDANHQPVLVAVKTAKLESMTKEQIKEIMREARLMRNLDHINVVKFFGVAAGTEPLYVIMELADGGALDSALGKLHFPMIKKYELIYQAANGLAYIHEKNLMHRDVAARNCLYGGGQVKIADFGLSREGADYTMDLKKKVPIRWLPPETIRSGLYTPKTDVFAFGVMAWEITEDGKEPYPGFKVIEVAMKVLQGYRMPFSPEVNKEFAEFILTKCWPEKYEDRLPMKDICKWMKSSVKAQGGDTGPGGMMSKFGKKIKRSNSRESKSKSSTMTAAHGHDQGAMTAIEK	not soluble
MSEFSQTVPELVAWARKNDFSISLPVDRLSFLLAVATLNGERLDGEMSEGELVDAFRHVSDAFEQTSETIGVRANNAINDMVRQRLLNRFTSEQAEGNAIYRLTPLGIGITDYYIRQREFSTLRLSMQLSIVAGELKRAADAAEEGGDEFHWHRNVYAPLKYSVAEIFDSIDLTQRLMDEQQQQVKDDIAQLLNKDWRAAISSCELLLSETSGTLRELQDTLEAAGDKLQANLLRIQDATMTHDDLHFVDRLVFDLQSKLDRIISWGQQSIDLWIGYDRHVHKFIRTAIDMDKNRVFAQRLRQSVQTYFDEPWALTYANADRLLDMRDEEMALRDEEVTGELPEDLEYEEFNEIREQLAAIIEEQLAVYKTRQVPLDLGLVVREYLSQYPRARHFDVARIVIDQAVRLGVAQADFTGLPAKWQPINDYGAKVQAHVIDKY	soluble
MKVGIIMGSVRAKRVCPEIAAYVKRTIENSEELIDQKLKIQVVDLQQIALPLYEDDDELIPAQIKSVDEYADSKTRSWSRIVNALDIIVFVTPQYNWGYPAALKNAIDRLYHEWHGKPALVVSYGGHGGSKCNDQLQEVLHGLKMNVIGGVAVKIPVGTIPLPEDIVPQLSVHNEEILQLLASCIETTRNK	soluble
MGKLEDICDQYLSRKKEQDKVIEAVERCLKKGYDYEKLKDRVQEAISDPQKARKVISAVCDHYPQLRKRTRTDRDGEDRDRKRDRTDDRRKPDASVPAAVAEPQKPAEQSIEERLRAKEMMYKAQQEIEETKRKMAIAAGTLQPKAALAQAKTQMVAPGGKSLSLGRDEATMLMTHSMDKKSRMEELKARLARTTVMAKIDAMVGNSGAGVMAPLPEAVQQAEKKVQQQITKESKEPEKLIEYLDPRIQARTADRRRRGFNFHEKGEFEKLANKQRAMAKLERLQNEVSSAAQSTGISSAVKLAMVTPTGTAKMENGVPDIEWWDMLVLDKVNYDEIPAENDMERYSQTVSELVEHPISMRAPTEPLTQQYLKVYLTTKEKKKIRRQNRKEVLKEKTEKIRLGLEKAPEPKVKISNLMRVLGNEAIQDPTKMEAQVRKQMAERLKKHETLNAERKLTEDQKRAKKTKKLSEDTSTAVNVSVYRVKSLAHPSKKFKVETNAKQLQMSGAIMMHKAQNVIVVEGGPKQQKFYKNLMINRIKWSDEIIGQKKDAEKDAPGERNLCEMIWEGQVKRRNFRDFTVHTATLEKQAREFFEKHGVAQYWDLCYSTTVLLEGQDILPTA	not soluble
MGSDKIHHHHHHMSMVQSAFPPRRNSVGVQVGSIRIGGGAPIVVQSMTNTDTEDEIATTVQVAQLARAGSELVRITVNTAEAARAVPGIRARLDDMGCQVPLIGDFHFNGHKLVTEYPGCARALAKYRINPGNVGHGKKRDEQFSILIEAACKYEKPVRIGVNWGSLDPELLARMMDENARSGDPRDASAVMYEALITSALQSAERAEEIGLGRDRIILSCKMSGVRDLITVYRALAARCDYALHLGLTEAGMGSKGIVASTAALSVLLLEGIGDTIRISLTPEPGGDRAREVVVAQEILQTTGLRAFVPLVAACPGCGRTTSTYFQELAESIQGYVREQMLVWREEYEGVENMTLAVMGCVVNGPGESKHANIGISLPGSGERPVAPVFVDGQKAVTLKGDNIAGEFRQIVDEYVQMKYPKKAVDAH	not soluble
MSHLLTMSELSEVEISEILKDAEDFANGKESKTTEQTFVANLFFENSTRTRFSFEVAEKRLGLDVLNFSADASSVQKGETLYDTIRTLESIGTKAVVIRHEQDRYFDELKDQVNIPILNAGDGCGNHPTQCLLDLLTIKQEFGRFEGLKIAIVGDVRHSRVARSNAEALTKLGATIYFASPEEWKDEDNTFGTYKPLDELVPEVDVMMLLRVQHERHDHYETDIMKEYHEKHGLTVEREKRMKEGSIIMHPAPVNRDVEIASELVECERSRIFKQMENGVYVRMAVLKRALPNVLGGMKHELFV	not soluble
MGSDKIHHHHHHMTPQPLADNLSPPDPARLAQSIKDWGRELGFQQVGISDVELGEHEAHLQRWLEAGYHGEMDYMAAHGSKRSRPAELVPGTLRVISLRMDYLPGDTRMAQVLATPEKAYVSRYALGRDYHKLIRKRLQQLAERIQAEVGPFGFRAFVDSAPVLEKAIAEQAGLGWIGKNTLVLNRKAGSYFFLGELFVDMPLPVDPAMDSEHCGRCSACLDICPTAAFVGPYRLDARRCISYLTIEYKGAIPLELRPLIGNRVFGCDDCQIVCPWNRFARPTGQGDFQPRHSLDNAELAELFLWSEEEFLGRTEGSPLRRAGYERWLRNLAVGLGNAPSTIPVLEALKARRGFPSELVREHVEWALRRHGET	not soluble
